We go through one molecule from patent publication US20070207519A1 (SANDOZ, published 2007).

In the assay the target is T1, β-subunit of wild-type CPC acylase derived from Pseudomonas sp. SE83 (Pseudomonas sp. SE83, UniProt P15558 240-774).
T1 construct: About 58 kDa subunit of 535 amino acids; also called AcyII β-subunit; CPC acylase β-subunit
T1 sequence: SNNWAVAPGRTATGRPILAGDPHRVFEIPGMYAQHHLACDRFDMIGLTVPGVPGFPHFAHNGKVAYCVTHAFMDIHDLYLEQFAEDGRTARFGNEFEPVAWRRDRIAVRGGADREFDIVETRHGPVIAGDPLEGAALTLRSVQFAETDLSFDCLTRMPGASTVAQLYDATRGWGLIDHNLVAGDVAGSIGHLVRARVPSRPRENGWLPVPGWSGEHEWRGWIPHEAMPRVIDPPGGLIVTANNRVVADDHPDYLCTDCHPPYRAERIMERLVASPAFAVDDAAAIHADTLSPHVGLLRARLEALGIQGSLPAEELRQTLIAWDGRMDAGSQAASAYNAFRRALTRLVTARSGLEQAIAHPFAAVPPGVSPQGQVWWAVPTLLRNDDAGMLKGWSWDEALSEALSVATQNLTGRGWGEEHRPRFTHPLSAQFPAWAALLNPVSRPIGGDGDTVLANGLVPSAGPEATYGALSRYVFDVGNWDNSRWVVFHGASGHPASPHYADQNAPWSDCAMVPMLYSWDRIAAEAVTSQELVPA
Kind of assay: non-denaturing PAGE and MALDI-TOF of the purified enzyme (single species of about 83 kDa) against denaturing SDS-PAGE (bands of 25 kDa and 58 kDa). An excerpt:
Further, the active fraction of wild-type CPC acylase obtained in Example <2-1> was subjected to non-denaturing PAGE and Coomasie blue staining. As a result, a single band was detected at a position corresponding to the molecular weight of about 83 kDa, which means that the wild-type CPC acylase was purely purified (FIGS. 11a to 11c). Together with the result of non-denaturing PAGE, MALDI-TOF mass spectrophotometry analysis confirmed that the molecular weight of purified enzyme (that is, the active CPC acylase) is about 83 kDa. Furthermore, about 25 kDa of band corresponding to α-subunit and about 58 kDa of band corresponding to β-subunit were detected by denaturing SDS-PAGE.

B1: α-subunit of wild-type CPC acylase derived from Pseudomonas sp. SE83 (enzyme)
chain: TMAAKTDREALQAALPPLSGSLSIPGLSAPVRVQRDGWGIPHIKASGEADAYRALGFVHAQDRLFQMELTRRKALGRAAEWLGAEAAEADILVRRLGMEKVCRRDFEALGAEAKDMLRAYVAGVNAFLASGAPLPIEYGLLGAEPEPWEPWHSIAVMRRLGLLMGSVWFKLWRMLALPVVGAANALKLRYDDGGQDLLCIPPGVEAERLEADLAALRPAVDALLKAMGG
notes: About 25 kDa subunit of 229 amino acids; also called AcyII α-subunit; CPC acylase α-subunit
Turning to B1, the binding result is “binds”.
